Laboratory results as given in the RNAGym collection of RNA variant scans (doi:10.1073/pnas.2313332121).

B1: TPR t1 (parent)
chain: GACCAAUCUGCCCUCAGAGCUCGAGAACAUCUUCGGAUGCAGAGGAGGCAGGCUUCGGUGGCGCGAUAGCGCCAACGUCCUCAACCUCCAAUGCAUCCCACCACAUGAUGAUGCCUGAAGAGCCUUGGUUUUUUG

Variants of: B1
Experiment: polymerase ribozyme fitness, log enrichment relative to wild type (log ratio); higher = more active; in vitro selection for triplet polymerase activity
Procedure, shortened: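 Libraries of mutants in each subunit of a heterodimeric triplet polymerase ribozyme were generated by PCR and transcribed. In triplicate, each went through one in vitro selection round: annealing with biotinylated primer, partner subunit and triplets; frozen incubation at −7 °C; gel excision of extended constructs; streptavidin-bead capture; RT-PCR. Fitness, taken from Illumina sequencing of input and output libraries, is the logarithm of a genotype's enrichment over wild-type enrichment, averaged across replicates with inverse-variance weights. The logarithm is base 2, and genotypes needed ≥10 input reads and ≥1 read per output to be kept.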

Q: For C13A G48A G69A C114U U129A, which “polymerase ribozyme fitness (log ratio)” value is on record?
A: The value was -6.99.

Q: Which “polymerase ribozyme fitness (log ratio)” value does the source give for C13A U112A G120C here?
A: The value was -0.261.

Q: For C13A C40A G71A, which “polymerase ribozyme fitness (log ratio)” value is on record?
A: The value was -4.02.

Q: With C12U C88A A95U C104A as the variant, how does the “polymerase ribozyme fitness (log ratio)” value read?
A: The value was -3.44.

Q: With C12U G42U G52U A66U C72U C115A G117A as the variant, how does the “polymerase ribozyme fitness (log ratio)” value read?
A: Its value is -6.98.

Q: With C12U G17C C72G C82G U112C C123U U131C as the variant, how does the “polymerase ribozyme fitness (log ratio)” value read?
A: Its value is -3.8.

Q: With C12U G36U A74C C94U A111G U116A as the variant, how does the “polymerase ribozyme fitness (log ratio)” value read?
A: The value was -2.62.

Q: Which “polymerase ribozyme fitness (log ratio)” value does the source give for C12U G47U G120U here?
A: Its value is 0.786.

Q: For C12U G63U A75C, which “polymerase ribozyme fitness (log ratio)” value is on record?
A: The value was -0.74.

Q: With C12U G39U as the variant, how does the “polymerase ribozyme fitness (log ratio)” value read?
A: The value was -0.353.

Q: Which “polymerase ribozyme fitness (log ratio)” value does the source give for C12U G39C here?
A: Its value is -0.515.

Q: For C12U G69U G77A, which “polymerase ribozyme fitness (log ratio)” value is on record?
A: The value was 0.767.

Q: With C12U G39U C62A U78A as the variant, how does the “polymerase ribozyme fitness (log ratio)” value read?
A: The value was -1.41.

Q: For C13A G45C A84C A91C, which “polymerase ribozyme fitness (log ratio)” value is on record?
A: The value was -4.71.

Q: Which “polymerase ribozyme fitness (log ratio)” value does the source give for C12U C88A here?
A: The value was -0.264.

Q: For C12U C88U, which “polymerase ribozyme fitness (log ratio)” value is on record?
A: The value was 0.381.

Q: With C12U G44A U131A as the variant, how does the “polymerase ribozyme fitness (log ratio)” value read?
A: Its value is -1.07.

Q: For C13A C76U C82A A103U G110C C114A G117C C123U, which “polymerase ribozyme fitness (log ratio)” value is on record?
A: The value was -7.

Q: Which “polymerase ribozyme fitness (log ratio)” value does the source give for C13A A18U G42U G61U C123G here?
A: Its value is -0.471.

Q: For C13A G39U G69U U109A, which “polymerase ribozyme fitness (log ratio)” value is on record?
A: The value was -5.33.

Q: Which “polymerase ribozyme fitness (log ratio)” value does the source give for C13G A16G U21A A29C A43U G69U C82G C114U here?
A: Its value is -4.09.

Q: Which “polymerase ribozyme fitness (log ratio)” value does the source give for C12U G25C C94G G113A here?
A: The value was -6.74.

Q: With C12U G110A as the variant, how does the “polymerase ribozyme fitness (log ratio)” value read?
A: The value was 0.122.

Q: For C12U G110C, which “polymerase ribozyme fitness (log ratio)” value is on record?
A: The value was -2.23.

Q: Which “polymerase ribozyme fitness (log ratio)” value does the source give for C12U G44C C102U here?
A: Its value is -2.5.

Q: With C12U C82U as the variant, how does the “polymerase ribozyme fitness (log ratio)” value read?
A: Its value is 0.282.

Q: With C12U U92C as the variant, how does the “polymerase ribozyme fitness (log ratio)” value read?
A: Its value is -1.15.

Q: For C12U G19C, which “polymerase ribozyme fitness (log ratio)” value is on record?
A: The value was -1.79.

Q: For C13A C62U, which “polymerase ribozyme fitness (log ratio)” value is on record?
A: Its value is -2.18.

Q: For C13A G17A C62A G120A, which “polymerase ribozyme fitness (log ratio)” value is on record?
A: Its value is -5.55.

Q: For C12U G36A, which “polymerase ribozyme fitness (log ratio)” value is on record?
A: The value was -0.19.

Q: With C12U G44U U55C as the variant, how does the “polymerase ribozyme fitness (log ratio)” value read?
A: Its value is -0.924.

Q: Which “polymerase ribozyme fitness (log ratio)” value does the source give for C13A C73A here?
A: Its value is -1.36.

Q: Which “polymerase ribozyme fitness (log ratio)” value does the source give for C12U C62U U92C here?
A: The value was -1.06.

Q: Which “polymerase ribozyme fitness (log ratio)” value does the source give for C12U C85U A95C here?
A: The value was -1.78.

Q: With C12U G47U A119C C123A as the variant, how does the “polymerase ribozyme fitness (log ratio)” value read?
A: Its value is -2.6.

Q: With C12U U112A C115A as the variant, how does the “polymerase ribozyme fitness (log ratio)” value read?
A: The value was 1.79.

Q: With C13G A16U C56U A105G A111C as the variant, how does the “polymerase ribozyme fitness (log ratio)” value read?
A: The value was -4.91.

Q: Which “polymerase ribozyme fitness (log ratio)” value does the source give for C13A C15U G51A C94U here?
A: Its value is -5.17.

Q: For C13A U21C A50U C98U U106A C115U, which “polymerase ribozyme fitness (log ratio)” value is on record?
A: Its value is -6.68.

Q: For C13A A24U G63C A83U A84C G120U G122A U125A, which “polymerase ribozyme fitness (log ratio)” value is on record?
A: Its value is -6.79.

Q: Which “polymerase ribozyme fitness (log ratio)” value does the source give for C12U C97A here?
A: Its value is -3.91.

Q: For C12U G39C A121C, which “polymerase ribozyme fitness (log ratio)” value is on record?
A: The value was 0.709.

Q: Which “polymerase ribozyme fitness (log ratio)” value does the source give for C12U G51A here?
A: Its value is -2.09.

Q: For C12U G60A G69A, which “polymerase ribozyme fitness (log ratio)” value is on record?
A: Its value is -4.56.

Q: Which “polymerase ribozyme fitness (log ratio)” value does the source give for C13A A26G C53U C104U here?
A: Its value is -5.09.

Q: Which “polymerase ribozyme fitness (log ratio)” value does the source give for C12U G71U A90G A121G here?
A: Its value is 1.71.

Q: For C12U C72A C85A C94G A111C A119G U125A U133G, which “polymerase ribozyme fitness (log ratio)” value is on record?
A: The value was -4.02.

Q: Which “polymerase ribozyme fitness (log ratio)” value does the source give for C13A A95G U109A here?
A: The value was -6.28.

Q: Which “polymerase ribozyme fitness (log ratio)” value does the source give for C12U G44A here?
A: Its value is -0.615.

Q: For C13A U21A G47U U109A, which “polymerase ribozyme fitness (log ratio)” value is on record?
A: The value was -5.74.

Q: With C13A A83G A121U C123U as the variant, how does the “polymerase ribozyme fitness (log ratio)” value read?
A: Its value is 0.492.

Q: With C12U G35A as the variant, how does the “polymerase ribozyme fitness (log ratio)” value read?
A: The value was -3.06.

Q: Which “polymerase ribozyme fitness (log ratio)” value does the source give for C13A A43G C70G U116C G117U here?
A: Its value is -6.51.

Q: For C13A U21G G63A, which “polymerase ribozyme fitness (log ratio)” value is on record?
A: Its value is -4.73.

Q: With C13A C72U U92C U133A as the variant, how does the “polymerase ribozyme fitness (log ratio)” value read?
A: Its value is -3.18.

Q: With C13A G44C C124A as the variant, how does the “polymerase ribozyme fitness (log ratio)” value read?
A: Its value is 0.459.

Q: For C12U U30C G61U, which “polymerase ribozyme fitness (log ratio)” value is on record?
A: Its value is -3.15.

Q: For C13A U38A A46U C70G A121U, which “polymerase ribozyme fitness (log ratio)” value is on record?
A: Its value is -5.9.

Q: With C13A U59G C89G U106C as the variant, how does the “polymerase ribozyme fitness (log ratio)” value read?
A: The value was -3.02.

Q: Which “polymerase ribozyme fitness (log ratio)” value does the source give for C12U C70U C76G U132C here?
A: The value was -0.684.

Q: Which “polymerase ribozyme fitness (log ratio)” value does the source give for C12U G47U here?
A: Its value is -0.627.

Q: For C12U U81G, which “polymerase ribozyme fitness (log ratio)” value is on record?
A: The value was -2.24.

Q: For C12U G47A U87C, which “polymerase ribozyme fitness (log ratio)” value is on record?
A: Its value is -0.382.

Q: For C13G A26G, which “polymerase ribozyme fitness (log ratio)” value is on record?
A: The value was -3.54.

Q: For C13A C70U C114G, which “polymerase ribozyme fitness (log ratio)” value is on record?
A: Its value is -6.69.

Q: Which “polymerase ribozyme fitness (log ratio)” value does the source give for C13A C28U here?
A: The value was -3.53.

Q: Which “polymerase ribozyme fitness (log ratio)” value does the source give for C12U G36C A46U U112C G127U here?
A: Its value is 0.627.

Q: Which “polymerase ribozyme fitness (log ratio)” value does the source give for C13A U14A U54A here?
A: The value was -2.73.

Q: With C13A G69U as the variant, how does the “polymerase ribozyme fitness (log ratio)” value read?
A: The value was -1.23.

Q: With C13A G69C as the variant, how does the “polymerase ribozyme fitness (log ratio)” value read?
A: Its value is -3.15.

Q: For C13A G69A, which “polymerase ribozyme fitness (log ratio)” value is on record?
A: The value was -3.52.

Q: Which “polymerase ribozyme fitness (log ratio)” value does the source give for C13A G42U C72G here?
A: Its value is -3.63.

Q: With C13A C124A as the variant, how does the “polymerase ribozyme fitness (log ratio)” value read?
A: Its value is 0.0418.

Q: With C12U G42A A90G G128U as the variant, how does the “polymerase ribozyme fitness (log ratio)” value read?
A: Its value is -2.7.

Q: With C12U G113C G120U as the variant, how does the “polymerase ribozyme fitness (log ratio)” value read?
A: The value was -3.12.

Q: With C13A A66C C123A as the variant, how does the “polymerase ribozyme fitness (log ratio)” value read?
A: Its value is -2.16.

Q: For C12U C98A, which “polymerase ribozyme fitness (log ratio)” value is on record?
A: Its value is -4.29.

Q: Which “polymerase ribozyme fitness (log ratio)” value does the source give for C12U G45A A95C U109G G117C A118G here?
A: Its value is -5.62.

Q: Which “polymerase ribozyme fitness (log ratio)” value does the source give for C12U C70U C94U here?
A: The value was 0.056.

Q: With C13A A27U as the variant, how does the “polymerase ribozyme fitness (log ratio)” value read?
A: Its value is -3.33.

Q: For C13A A27C, which “polymerase ribozyme fitness (log ratio)” value is on record?
A: Its value is -3.81.

Q: For C12U C114A, which “polymerase ribozyme fitness (log ratio)” value is on record?
A: Its value is -1.12.
